biological target: human factor Xa (plasma-derived) (human); assay: kinetic titration of prothrombinase (thrombin generation read with a chromogenic substrate); apparent KD; limiting fXa (15 pM), fV/fVa species varied (30 pM to 10 nM; 0 to 15 nM by the legend of Fig. 4), PCPS vesicles 20 μM, DAPA 3 μM, prothrombin 1.4 μM, Spectrozyme-TH 0.4 mM; fitted to a one binding site model
Sequence (P00742 whole entry): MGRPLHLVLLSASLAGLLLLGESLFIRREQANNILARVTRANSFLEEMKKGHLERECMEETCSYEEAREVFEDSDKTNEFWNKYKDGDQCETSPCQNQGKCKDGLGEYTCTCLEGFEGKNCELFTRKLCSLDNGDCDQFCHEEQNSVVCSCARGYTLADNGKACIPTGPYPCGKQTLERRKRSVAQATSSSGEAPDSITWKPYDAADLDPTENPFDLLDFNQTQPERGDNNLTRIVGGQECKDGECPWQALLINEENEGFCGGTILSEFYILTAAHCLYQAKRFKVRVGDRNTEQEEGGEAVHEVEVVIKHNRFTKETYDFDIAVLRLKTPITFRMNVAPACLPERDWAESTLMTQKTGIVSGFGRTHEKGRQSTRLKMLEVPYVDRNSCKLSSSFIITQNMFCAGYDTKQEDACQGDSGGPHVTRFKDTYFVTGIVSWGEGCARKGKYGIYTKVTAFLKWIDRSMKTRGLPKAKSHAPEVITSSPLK

Row | Kd [nM] | Substance
1 | 0.92 | recombinant human fV with Arg1018 and Arg1545 mutated to glutamine following incubation with thrombin (fVa^RQQ) (from UniProt P12259 29-737; P12259 738-2224) (complex)
2 | 0.51 | fVa purified from pooled fresh frozen normal plasma (fVa^plasma) (from UniProt P12259 29-737; P12259 1574-2224) (complex)
3 | 0.28 | wild type recombinant human fV incubated with thrombin (fVa^WT) (from UniProt P12259 29-737; P12259 1574-2224) (complex)
4 | 0.73 | recombinant human fV with region 1000–1008 deleted and the thrombin activation cleavage sites (Arg709/Arg1018/Arg1545) mutated to glutamine (fV^ΔB9/Q3) (from UniProt P12259 29-2224) (natural protein)
